Experimental data taken from the supplement of paper PMC9170038.

Assays:
MS2 coat protein [1] = assay: apparent KD of MS2 coat protein, switch ON state; designed switch direction (-1 OFF switch, 1 ON switch): 1; higher = weaker reporter binding; settings: FMN input: 0 or 200 uM; Eterna round: R93 (includes R88 designs)
Method in brief: (§1)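 Illumina sequencing clusters were used for on-chip transcription of designed RNA switches. Titration with SNAP-549-labelled MS2 coat protein followed, in twofold steps from 0.7 or 1.5 nM to 3 µM in 100 mM Tris-HCl pH 7.5, 80 mM KCl, 4 mM MgCl2, without or with constant ligand. Apparent KD is each design's median of fits to normalised cluster binding curves.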

MS2 coat protein [2] = assay: apparent KD of MS2 coat protein, switch OFF state (with FMN for OFF switches, without FMN for ON switches); designed switch direction (-1 OFF switch, 1 ON switch): 1; higher = weaker reporter binding; settings: FMN input: 0 or 200 uM; Eterna round: R93 (includes R88 designs)
Method in brief: as §1

Row | Sequence | apparent KD of MS2 coat protein (MS2 coat protein [1]) [nM] | apparent KD of MS2 coat protein (MS2 coat protein [2]) [nM]
1 | GAAAAACAUGAGGAUCACCCAUGUAAGAUAAACACAGGAUAUGCGAAAAGAAAGAAAGAAGCAGAAGGGUGAAAAG [Mat - Same State 1 - Tesla mod - 42] | 15.2 | 43.8
2 | AAAAAACAUGAGGAUCACCCAUGUGAAAAAAACGCAGGAUAUCCCUUUUUUAAAUGGGAGGGAGAAGGGUGAAAAA [Nob's Hobby 14 - Jieux - Same State 1] | 36.3 | 45.9
3 | AUAAAAGAAGCGAAGGAUAUCCAAAGGACCACAUGAGGAUCACCCAUGUAAAGAAAGAAAAAAUGGGAGAAGGUCGCAAAGAAUA [73%, More Fisker Same State 2, D3, 7] | 74.9 | 97.4
4 | AACAAUCUAUCUGAGGAUAUCAAGUCAAAGACAUGAGGAUCACCCAUGUGCAGGAAAACUGCACUUGAGAAGGCAGAUAGAUUGA [SS2: 1109] | 12.3 | 9.63
5 | CGUGAACAUGAGGAUCACCCAUGUGAAAAACAUAGAGGAUAUGUCACAUGAGUGUAAAAGACAGAAGGCUAUCGUG [Mod 1 of Round 1 starryjess' Mod pf Nando] | 98 | 152
6 | GGGAGACAUGAGGAUCACCCAUGUGAAAACGUGUCAGGAUAUGUAUGGAAACCAUACUGUACAGAAGGGACUUGUC [Quintus Rammius Martialis] | 54.8 | 89.2
7 | UAGGGAACAGGGUAGGAUAUGCAUGGUCGUACAUGAGGAUCACCCAUGUAGCCUAGAAAAUAAAUGCAGAAGGACCAAAAGAAAA [Ononmaesra] | 16.5 | 48.3
8 | AAGAAACAUGAGGAUCACCCAUGUGGAAAUAUGGGAGGAUAUACAAGGACGUAAGUCAAGGUAGAAGGCCUAAGAA [Mat - Same State 1 - Meechl mod - D138] | 21.5 | 134
9 | AAUAUACAUGAGGAUCACCCAUGUUUUAAUAACUGAGGAUAUACGGGUGAAAACAGCAUAGUAGAAGGCAGAUAUA [SameState1 Malc#6] | 37.8 | 102
10 | AAACCACAUGAGGAUCACCCAUGUGAAAUACACAUAGGAUAUGCGAAAAGAAACAAAGAAGCAGAAGGGUGAAAAA [75%, Ex sub1, 17] | 35.4 | 41.3
11 | AUAAAUAAAAGCGAGGAUAUCCAAAAAAAAACAUGAGGAUCACCCAUGUAAAAGAAAAUAAAAUGGGAGAAGGCGCAAAAUAAAU [SS2 M 9] | 21.2 | 7.54
12 | AACAAUCUAUCUGAGGAUAUGUGUCGAAAGACAUGAGGAUCACCCAUGUAAAAACAUGGAAAGAUACAGAAGGCAGAUAGAUUGA [SS2: 1157] | 28.4 | 107
13 | AAAAUAAAAUAAAAGGAUAUAAAAUAAAAUACAUGAGGAUCACCCAUGUAUAAAAUAAAAAAAUAAAAGAAGGAAUAAAAAUAAA [SS2 504: MS2 4] | 16.4 | 11.2
14 | AAAUAAAUGACUAAGGAUAUAUCGGAGAAAACAUGAGGAUCACCCAUGUAAUAAUAAAAAGGGUGAUAGAAGGUAGUCAACAAAC [Mod 1 of Pariah 4 by Hyphema in Round 1] | 37.3 | 63.6
15 | AGAAAUAAAAGAGAGGAUAUCCUAAAGAAAACAUGAGGAUCACCCAUGUAAAAGAAAAUAAAAUGGGAGAAGGCUCAAAAUAAAG [80%, More Helter Skelter 2] | 15.4 | 39.5
16 | GCACCACAUGAGGAUCACCCAUGUAAAACGUAGCAAGGAUAUGGGCACGGAUAAUUCCGAUCAGAAGGUGUAACGC [Gemaditera] | 105 | 35.2

Row | Sequence | apparent KD of MS2 coat protein (MS2 coat protein [1]) [nM] | apparent KD of MS2 coat protein (MS2 coat protein [2]) [nM]
17 | AAAAAACAUGAGGAUCACCCAUGUGCAAAAUUCGCAGGAUAUUUUUCUUUUAAAUGAGAGGGAGAAGGGUGUAAAA [Nob's Hobby 23 - Jieux - Same State 1] | 21.6 | 22.1
18 | AAGAUACAUGAGGAUCACCCAUGUCACCUCACACGAGGAUAUCUGUGCAGUACUCAGUACGGAGAAGGCGUGGAAA [Mat - Same State 1 - Hyphema mod - D98] | 25 | 56.4
19 | AAGAAACAUGAGGAUCACCCAUGUAGAAAUAUGGGAGGAUAUACAAGGACGAAAGUCAAGGUAGAAGGCCUAAGAA [Mat - Same State 1 - Meechl mod - D132] | 20.7 | 112
20 | AAAAAAUAAAAAAAGGAUAUAAAUGCUAGAACAUGAGGAUCACCCAUGUACUAGCAAAAAAUAAAAAAGAAGGAAAAAUAAAAAA [SS2: MS2 18] | 15.6 | 14.8
21 | AACAAUCUAUCUGAGGAUAUCAAAAAAAAAACAUGAGGAUCACCCAUGUCUAGGAAAACUAGAUAUGAGAAGGCAGAUAGAUUGA [SS1 - 593] | 7.93 | 49.6
22 | AAUAGACAUGAGGAUCACCCAUGUAGAAUUAUGGGAGGAUAUACAAAGACGAGAGUCAGAGUAGAAGGCCUAGGAU [salish99-ss1-149] | 24.7 | 51.8
23 | GGAGCUCCAGCGCAGGAUAUCGACCCAGGGACAUGAGGAUCACCCAUGUUCCAAAAAAAAUGGGUCGAGAAGGGCGUUGGAGAGCC [SAmeState2-III] | 11 | 12.2
24 | AAUAUACAUGAGGAUCACCCAUGUUUUAAUAACGCAGGAUAUACGGGUGAAAACAGCAUAGUAGAAGGGCGAAAAA [SameState1 Malc#1] | 31.8 | 106
25 | AACAAUCUAUCUGAGGAUAUCAUGUAAAAGACAUGAGGAUCACCCAUGUAGCAGGAAACUGCACAUGAGAAGGCAGAUAGAUUGA [SS2: 1124] | 15.9 | 19.6
26 | AAAAAACAUGAGGAUCACCCAUGUCCUCGGACGUGAGGAUAUGUACAGACUUCGGUCUGUACAGAAGGCACGAAAA [SS1 - 1036] | 503 | 319
27 | GAACCACAUGAGGAUCACCCAUGUCUAAGAAAUUAAGGAUAUGCACAAAAGGAAAUAACUGCAGAAGGUAAACGAA [Redo] | 25.1 | 33.1
28 | ACUAUACAUGAGGAUCACCCAUGUUAGCUGGGCGAAGGAUAUGUAGAUGGAUAAAAAUAUGCAGAAGGUCGAUAAC [JR_SS001_Sub210] | 39.5 | 77.2
29 | AAAAAACAUGAGGAUCACCCAUGUAAAAAUAUGGGAGGAUAUUCAAACACGAAAGUGAAAGAAGAAGGCCUAAAAA [SS! MT 18] | 15 | 139
30 | GGGAGACAUGAGGAUCACCCAUGUGAGAAGAGGCGAGGAUAUCGAAAAAAAAAAAAAAAACGAGAAGGCGCGAGAA [salish99-SS1-003] | 23.3 | 38
31 | UAACUACAUGAGGAUCACCCAUGUCAAAUAAAUCGAGGAUAUGGGACGCAAAACGUCUGACCAGAAGGCGAAACAA [Maquriceri] | 27.3 | 132
32 | AAAUAAAGGACUAAGGAUAUAUCGCAUGACACAUGAGGAUCACCCAUGUGGUAACACAGAGGGUGAUAGAAGGUAGUCCACAAACA [Pariah 6 (MS2 Riboswitches - Same State 2)] | 42.8 | 287
